{"source": "paper PMC8215292", "about": "“Functional impact of intramolecular cleavage and dissociation of adhesion G protein–coupled receptor GPR133 (ADGRD1) on canonical signaling” (The Journal of Biological Chemistry, 2021)", "binders": {"B1": {"name": "GPR133 (ADGRD1) N-terminal fragment, cleaved from C-terminally Twin-Strep-tagged WT GPR133 (domain or fragment, human)", "chain": "VYSRSQDHPGFQVLASASHYWPLENVDGIHELQDTTGDIVEGKVNKGIYLKEEKGVTLLYYGRYNSSCISKPEQCGPEGVTFSFFWKTQGEQSRPIPSAYGGQVISNGFKVCSSGGRGSVELYTRDNSMTWEASFSPPGPYWTHVLFTWKSKEGLKVYVNGTLSTSDPSGKVSRDYGESNVNLVIGSEQDQAKCYENGAFDEFIIWERALTPDEIAMYFTAAIGKHALLSSTLPSLFMTSTASPVMPTDAYHPIITNLTEERKTFQSPGVILSYLQNVSLSLPSKSLSEQTALNLTKTFLKAVGEILLLPGWIALSEDSAVVLSLIDTIDTVMGHVSSNLHGSTPQVTVEGSSAMAEFSVAKILPKTVNSSHYRFPAHGQSFIQIPHEAFHRHAWSTVVGLLYHSMHYYLNNIWPAHTKIAEAMHHQDCLLFATSHLISLEVSPPPTLSQNLSGSPLITVHLKHRLTRKQHSEATNSSNRVFVYCAFLDFSSGEGVWSNHGCALTRGNLTYSVCRCTHL", "modifications": "glycosylated (immaturely and maturely glycosylated forms; nine N-linked glycosylation sites predicted within the NTF)", "notes": "signal peptide in the construct; codon-optimized cDNA of WT human GPR133 from Axxam; also called NTF; GPR133 NTF; source: HEK293T, transfected, in whole-cell lysate or subcellular fractions"}}, "key": {"[1]": {"molecular_target": "T1, GPR133 (ADGRD1) C-terminal fragment with C-terminal Twin-Strep-tag, cleaved from C-terminally … (human)", "T1 construct": "also called CTF; GPR133 CTF; source: HEK293T, transfected, in whole-cell lysate or subcellular fractions; not shown: Twin-Strep, C-terminal, kept", "T1 chain": "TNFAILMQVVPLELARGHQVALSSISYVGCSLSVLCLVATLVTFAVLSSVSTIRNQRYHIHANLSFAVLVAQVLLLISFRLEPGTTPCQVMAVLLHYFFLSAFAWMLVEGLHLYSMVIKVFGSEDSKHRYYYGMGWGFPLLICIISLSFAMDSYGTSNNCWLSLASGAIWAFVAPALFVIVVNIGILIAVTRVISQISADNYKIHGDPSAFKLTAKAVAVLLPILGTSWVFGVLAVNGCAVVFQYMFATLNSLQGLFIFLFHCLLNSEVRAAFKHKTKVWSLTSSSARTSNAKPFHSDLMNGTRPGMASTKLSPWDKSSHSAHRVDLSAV", "experiment": "pull-down; C-terminal Twin-Strep tag purification on Strep-Tactin from the plasma membrane subcellular fraction of HEK293T cells (1% DDM); Western blot, densitometry of NTF/CTF", "settings": "partners not purified"}, "[2]": {"molecular_target": "T1, GPR133 (ADGRD1) C-terminal fragment …", "experiment": "pull-down; C-terminal Twin-Strep tag purification on Strep-Tactin from the Nuc/ER/Golgi subcellular fraction of HEK293T cells (1% DDM); Western blot, densitometry of NTF/CTF", "settings": "partners not purified"}}}
{"binder": "B1", "values": [{"measurement": "NTF/CTF ratio in the elution", "setting": "[1]", "value": 0.17}, {"measurement": "NTF/CTF ratio in the elution", "setting": "[2]", "value": 1}]}
